Measurements published in patent US20240252589A1, “AGENT FOR ENHANCING PHAGOCYTOSIS ABILITY OF NEUTROPHILS” (priority 2018, published 2024).

B1: HRG: Human plasma-derived histidine-rich glycoprotein, about 80 kDa, purified by Ni-NTA affinity and Mono Q chromatography (protein)
chain: VSPTDCSAVEPEAEKALDLINKRRRDGYLFQLLRIADAHLDRVENTTVYYLVLDVQESDCSVLSRKYWNDCEPPDSRRPSEIVIGQCKVIATRHSHESQDLRVIDFNCTTSSVSSALANTKDSPVLIDFFEDTERYRKQANKALEKYKEENDDFASFRVDRIERVARVRGGEGTGYFVDFSVRNCPRHHFPRHPNVFGFCRADLFYDVEALDLESPKNLVINCEVFDPQEHENINGVPPHLGHPFHWGGHERSSTTKPPFKPHGSRDHHHPHKPHEHGPPPPPDERDHSHGPPLPQGPPPLLPMSCSSCQHATFGTNGAQRHSHNNNSSDLHPHKHHSHEQHPHGHHPHAHHPHEHDTHRQHPHGHHPHGHHPHGHHPHGHHPHGHHPHCHDFQDYGPCDPPPHNQGHCCHGHGPPPGHLRRRGPGKGPRPFHCRQIGSVYRLPPLRKGEVLPLPEANFPSFPLPHHKHPLKPDNQPFPQSVSESCPGKFKSGFPQVSMFFTHTFPK
B2: rHRG: Recombinant human HRG expressed in CHO cells, purified on Ni-NTA agarose (protein)
chain: EFRMGKALIAALLLITLQYSCAVSPTDCSAVEPEAEKALDLINKRRRDGYLFQLLRIADAHLDRVENTTVYYLVLDVQESDCSVLSRKYWNDCEPPDSRRPSEIVIGQCKVIATRHSHESQDLRVIDFNCTTSSVSSALANTKDSPVLIDFFEDTERYRKQANKALEKYKEENDDFASFRVDRIERVARVRGGEGTGYFVDFSVRNCPRHHFPRHPNVFGFCRADLFYDVEALDLESPKNLVINCEVFDPQEHENINGVPPHLGHPFHWGGHERSSTTKPPFKPHGSRDHHHPHKPHEHGPPPPPDERDHSHGPPLPQGPPPLLPMSCSSCQHATFGTNGAQRHSHNNNSSDLHPHKHHSHEQHPHGHHPHAHHPHEHDTHRQHPHGHHPHGHHPHGHHPHGHHPHGHHPHCHDFQDYGPCDPPPHNQGHCCHGHGPPPGHLRRRGPGKGPRPFHCRQIGSVYRLPPLRKGEVLPLPEANFPSFPLPHHKHPLKPDNQPFPQSVSESCPGKFKSGFPQVSMFFTHTFPKPLE
modifications: misc_feature 1..1596 EcoR1-HRG-Xho1
notes: Recombinant human HRG expressed in CHO cells, purified on Ni-NTA agarose

How the values were obtained:
[1] = tested on: Human neutrophils; assay: Phagocytosis ability of neutrophils against Staphylococcus aureus (pHrodo indicator, InCell Analyzer); format: cell-based
Experimental: (§1) Phagocytosis ability of neutrophils against Escherichia coli (a gram-negative bacterium) or Staphylococcus aureus (a gram-positive bacterium) was measured with a pHrodo™ indicator. Phagosomes within neutrophils can be fluorescence-stained with a pHrodo™ staining reagent to measure their phagocytosis ability. Human neutrophils were separated from the whole blood using a hemocyte separation solution Polymorphprep™, and the cell solution was washed with PBS to perform suspension. The numbers of cells were adjusted, and the cells were stained with Hoechst33342 (nucleus staining: blue) and calcein-AM (cytoplasm: green) by incubation under CO2 at 37° C. for 15 min. Neutrophil solutions were resuspended in HBSS, and the numbers of cells were adjusted (2×10^6 cells/mL).
(§2) To the neutrophil liquids at the cell concentration, hHRG solutions were added, and the mixtures were dispensed to a 96-well plate, allowing incubation under CO2 at 37° C. for 30 min. Then, Escherichia coli (pHrodo™ Escherichia coli) or Staphylococcus aureus (pHrodo™ Staphylococcus aureus) was added to the 96-well plate, and incubated under CO2 at 37° C. In this Example, the final concentration of the cell liquids was 2×10^4 cells/well (2×10^5 cells/mL), the final concentrations of HRG were from 0.01 μM to 3.0 μM, and the final concentration of pHrodo™ Escherichia coli or pHrodo™ Staphylococcus aureus was 25 μg/well (250 μg/mL). The incubation of Escherichia coli was for 60 min, and that of Staphylococcus aureus was for 120 min.
Through use of InCell Analyzer (GE Healthcare), the amounts of red-colored pHrodo by neutrophils' uptake were analyzed by image analysis and quantification to observe the phagocytosis ability of neutrophils. The analysis results of phagocytosis ability of neutrophils against Escherichia coli and Staphylococcus aureus are shown in FIG. 4A and FIG. 4B.
To the neutrophil liquids at the cell concentration (2×10^6 cells/mL), each solution of hHRG, rHRG, or HRG-Fc was added to observe the phagocytosis ability of neutrophils against Escherichia coli or Staphylococcus aureus by the same procedure as Experimental Example 1 (HRG final concentrations of from 0.1 μM to 3.0 μM). As an observation experiment, phagocytosis ability of neutrophils against Escherichia coli or Staphylococcus aureus was observed, when each of different anti-HRG antibodies or control antibodies was added. The amounts of red-colored pHrodo by neutrophils' uptake can be imaged and quantified to observe the phagocytosis ability of neutrophils. […]

[2] = tested on: neutrophils; assay: Opsonin effect 1: phagocytosis by neutrophils of pHrodo Red Zymosan treated with serum containing HRG or no HRG; format: cell-based, Human; details: Zymosan 500 μg/mL; HRG 1.0 μM; 120 min; compared with serum containing no HRG
Experimental: In this Experimental Example, the effect of HRG on opsonization (Op) was observed using serum containing HRG or no HRG. Healthy human serum was used for opsonization (Op). In this Experimental Example, the “serum containing HRG” refers to untreated, healthy human serum. In this Experimental Example, the “serum containing no HRG” refers to human serum in which a Ni-NTA agarose gel is added to human serum to adsorb HRG in the serum, and then the Ni-NTA agarose gel is removed by centrifugation.
Zymosan (pHrodo™ Red Zymosan, manufactured by Thermo Fisher Scientific Inc.) was blended with serum containing HRG or no HRG at 4° C., and then the mixture was stirred well by ultrasonic homogenization. After the stirring, centrifugation was performed at 4° C. and 15,000 rpm for 15 min. The supernatant was discarded and the sediment was suspended in HBSS. This washing procedure was repeated twice, and then Zymosan was suspended in HBSS. The concentration of Zymosan at this time of point was 1.0 mg/mL.
To the neutrophil liquids, hHRG solutions were added, and the mixtures were dispensed to a 96-well plate, allowing incubation under CO2 at 37° C. for 30 min. […] Through use of InCell Analyzer (GE Healthcare), the amounts of red-colored pHrodo by neutrophils' uptake were analyzed by image analysis and quantification to observe the phagocytosis ability of neutrophils.

[3] = tested on: neutrophils; assay: Opsonin effect 2: phagocytosis by neutrophils of pretreated Escherichia coli; format: cell-based, Human
Experimental: (§3) Escherichia coli (pHrodo™ Escherichia coli) or Staphylococcus aureus (pHrdo™ Staphylococcus aureus) was pre-incubated with human serum albumin (HSA, 1.0 μM), hHRG (1.0 μM), or 5-fold-diluted human serum (1/5 Serum) at 37° C. for 15 min, and then Escherichia coli or Staphylococcus aureus was washed twice with HBSS. […] A hHRG solution was added to a neutrophil solution. The mixture was dispensed to a 96-well plate and incubated under CO2 at 37° C. for 30 min. Then, the Escherichia coli or Staphylococcus aureus pretreated with the above-mentioned HSA or HRG solution, or 5-fold-diluted human serum was added, and the resulting mixture was dispensed to the 96-well plate and incubated under CO2 at 37° C. for 120 min. The final concentration of the cell liquid at this time was 2×10^4 cells/well (2×10^5 cells/mL), the final concentration of HSA or HRG was […], and the final concentration of […] was 25 μg/well (250 μg/mL). Through use of InCell Analyzer (GE Healthcare), the amounts of red-colored pHrodo by neutrophils' uptake were analyzed by image analysis and quantification to observe the phagocytosis ability of neutrophils.

[4] = tested on: Human neutrophils; assay: Phagocytosis ability of neutrophils against Escherichia coli (pHrodo indicator, InCell Analyzer); format: cell-based
Experimental: as §1, §2
Through use of InCell Analyzer (GE Healthcare), the amounts of red-colored pHrodo by neutrophils' uptake were analyzed by image analysis and quantification to observe the phagocytosis ability of neutrophils.
To the neutrophil liquids at the cell concentration (2×10^6 cells/mL), each solution of hHRG, rHRG, or HRG-Fc was added to observe the phagocytosis ability of neutrophils against Escherichia coli or Staphylococcus aureus by the same procedure as Experimental Example 1 (HRG final concentrations of from 0.1 μM to 3.0 μM). […] The amounts of red-colored pHrodo by neutrophils' uptake can be imaged and quantified to observe the phagocytosis ability of neutrophils.

[5] = tested on: neutrophils; assay: Opsonin effect 2: phagocytosis by neutrophils of pretreated Staphylococcus aureus; format: cell-based, Human
Experimental: as §3

[6] = Experimental Example 3, 1.0 μM hHRG, antibodies 10 μM
[7] = bacteria pre-incubated 37° C. 15 min with hHRG 1.0 μM or 5-fold-diluted human serum
[8] = compared to un-opsonized (UnOp) bacterial cells, HRG added to neutrophils
[9] = Experimental Example 2, final concentrations 0.1 μM to 3.0 μM

Molecule | HRG concentration at which phagocytosis ability reached a plateau ([1]; Experimental Example 1, Staphylococcus aureus) | phagocytosis ability of neutrophils against Staphylococcus aureus ([1]; Experimental Example 1, hHRG 0.01 μM to 3.0 μM, 30 min preincubation, 120 min with pHrodo S. aureus) | phagocytosis ability of neutrophils against Staphylococcus aureus [1, 6] | amount of phagocytosis by neutrophils of serum-treated Zymosan (opsonin effect) [2] | opsonin (Op)-enhancing effect of pretreatment of Escherichia coli [3, 7] | phagocytosis ability of neutrophils of Escherichia coli opsonized with human sera on addition of HRG [3, 8] | HRG concentration at which phagocytosis ability reached a plateau ([4]; Experimental Example 1, Escherichia coli) | phagocytosis ability of neutrophils against Escherichia coli ([4]; Experimental Example 1, hHRG 0.01 μM to 3.0 μM, 30 min preincubation, 60 min with pHrodo E. coli) | phagocytosis ability of neutrophils against Escherichia coli [4, 6] | opsonin (Op)-enhancing effect of pretreatment of Staphylococcus aureus [5, 7] | phagocytosis ability of neutrophils of Staphylococcus aureus opsonized with human sera on addition of HRG [5, 8] | enhancement of phagocytosis of neutrophils against Staphylococcus aureus [1, 9] | enhancement of phagocytosis of neutrophils against Escherichia coli [4, 9]
B1 | 0.3 µM | enhanced | enhanced | opsonin (Op)-enhancing effect | did not exhibit an opsonin (Op)-enhancing effect | highly enhanced | 0.3 M | enhanced | enhanced | did not exhibit an opsonin (Op)-enhancing effect | highly enhanced | – | –
B2 | – | – | – | – | – | – | – | – | – | – | – | to the same extent as hHRG | to the same extent as hHRG
